Assay [1] concerns the target SARS-CoV-2 Spike protein (Spike trimer) (SARS-CoV-2) (UniProt P0DTC2).
The target is the same in assay [2]. This is another data set of the same source.
Assay [3] has the same target. The source holds these as a separate data set.

Ty1-modified ClyA nanopore (ClyA-f-Ty1): in assay [1], the Kd (as a rule, the concentration at which binding is half-saturated) came to 0.761 nM. The constant fit of Log10(tin (ms)) against Spike protein concentration (pM) in assay [2] was 1.48 Log10(ms). In addition, the EC50 (read off the curve) – broadly, the midpoint of the concentration-response curve – in assay [3] was 0.6 nM.

The values are drawn from patent US20260126425A1.
